Source: the supplement of paper PMC9112550, “Optimization of the antimicrobial peptide Bac7 by deep mutational scanning” (BMC Biology, 2022)

System: Escherichia coli TOP10
Experiment: shrunken log2 fold change of peptide-encoding DNA abundance (4.5 h post-induction vs induction); higher = less antimicrobial activity (less host growth inhibition)
Conditions: time post-induction: 4.5 h; library: site-saturation at positions 5, 18, 19, 20
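Further: peptides expressed intracellularly from a pBAD plasmid library in pooled LB shake-flask culture, induced with 0.3% L-arabinose, DNA abundance read by NGS, three biological replicates, DESeq2 with apeglm shrinkage.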

In order of rising “shrunken log2 fold change” value:
1. RRIRCRPPRLPRPRPRPYIMPRP  -1.48
2. RRIRCRPPRLPRPRPRPYFYPRP  -1
3. RRIRCRPPRLPRPRPRPYRGPRP  -0.992
4. RRIRCRPPRLPRPRPRPYWFPRP  -0.74
5. RRIRCRPPRLPRPRPRPYMIPRP  -0.582
6. RRIRCRPPRLPRPRPRPYYVPRP  -0.519
7. RRIRCRPPRLPRPRPRPYPTPRP  -0.517
8. RRIRCRPPRLPRPRPRPYMVPRP  -0.462
9. RRIRCRPPRLPRPRPRPYGEPRP  -0.432
10. RRIRCRPPRLPRPRPRPYMEPRP  -0.428
11. RRIRDRPPRLPRPRPRPDNKPRP  -0.413
12. RRIRDRPPRLPRPRPRPFVYPRP  -0.344
13. RRIRCRPPRLPRPRPRPYTIPRP  -0.342
14. RRIRDRPPRLPRPRPRPFMLPRP  -0.342
15. RRIRCRPPRLPRPRPRPYMHPRP  -0.31
16. RRIRDRPPRLPRPRPRPFYSPRP  -0.304
17. RRIRCRPPRLPRPRPRPYEEPRP  -0.255
18. RRIRCRPPRLPRPRPRPYPYPRP  -0.248
19. RRIRDRPPRLPRPRPRPFIQPRP  -0.238
20. RRIRDRPPRLPRPRPRPANMPRP  -0.229
21. RRIRCRPPRLPRPRPRPYVSPRP  -0.207
22. RRIRDRPPRLPRPRPRPFIVPRP  -0.193
23. RRIRCRPPRLPRPRPRPYELPRP  -0.18
24. RRIRDRPPRLPRPRPRPFTFPRP  -0.167
25. RRIRDRPPRLPRPRPRPFWYPRP  -0.167
26. RRIRCRPPRLPRPRPRPYGVPRP  -0.159
27. RRIRDRPPRLPRPRPRPCHCPRP  -0.158
28. RRIRDRPPRLPRPRPRPCPAPRP  -0.156
29. RRIRDRPPRLPRPRPRPCTPPRP  -0.153
30. RRIRDRPPRLPRPRPRPFTQPRP  -0.147
31. RRIRCRPPRLPRPRPRPYDEPRP  -0.144
32. RRIRDRPPRLPRPRPRPATYPRP  -0.141
33. RRIRDRPPRLPRPRPRPFGHPRP  -0.138
34. RRIRDRPPRLPRPRPRPCPQPRP  -0.132
35. RRIRDRPPRLPRPRPRPFRMPRP  -0.125
36. RRIRDRPPRLPRPRPRPFYPPRP  -0.109
37. RRIRDRPPRLPRPRPRPFAYPRP  -0.101
38. RRIRDRPPRLPRPRPRPFTHPRP  -0.0968
39. RRIRDRPPRLPRPRPRPDQNPRP  -0.0888
40. RRIRDRPPRLPRPRPRPAMKPRP  -0.0728
41. RRIRDRPPRLPRPRPRPDWYPRP  -0.0602
42. RRIRDRPPRLPRPRPRPDTAPRP  -0.0593
43. RRIRDRPPRLPRPRPRPCPFPRP  -0.0587
44. RRIRDRPPRLPRPRPRPFEPPRP  -0.057
45. RRIRDRPPRLPRPRPRPFQLPRP  -0.0537
46. RRIRDRPPRLPRPRPRPAMMPRP  -0.0512
47. RRIRDRPPRLPRPRPRPADLPRP  -0.0491
48. RRIRDRPPRLPRPRPRPEFKPRP  -0.0319
49. RRIRDRPPRLPRPRPRPEVKPRP  -0.0257
50. RRIRDRPPRLPRPRPRPFFTPRP  -0.024
51. RRIRDRPPRLPRPRPRPFTMPRP  -0.0235
52. RRIRDRPPRLPRPRPRPFSVPRP  -0.0199
53. RRIRDRPPRLPRPRPRPCYQPRP  -0.0177
54. RRIRDRPPRLPRPRPRPETSPRP  -0.0166
55. RRIRDRPPRLPRPRPRPAVLPRP  -0.014
56. RRIRDRPPRLPRPRPRPDYDPRP  -0.0133
57. RRIRDRPPRLPRPRPRPFGRPRP  -0.0125
58. RRIRDRPPRLPRPRPRPFRCPRP  -0.0101
59. RRIRDRPPRLPRPRPRPADGPRP  -0.00193
60. RRIRDRPPRLPRPRPRPDGNPRP  -0.00172
61. RRIRCRPPRLPRPRPRPYEIPRP  -0.00133
62. RRIRDRPPRLPRPRPRPFESPRP  -0.00133
63. RRIRDRPPRLPRPRPRPDQSPRP  0.0019
64. RRIRDRPPRLPRPRPRPFCMPRP  0.00343
65. RRIRDRPPRLPRPRPRPFKCPRP  0.0039
66. RRIRDRPPRLPRPRPRPEVDPRP  0.00961
67. RRIRDRPPRLPRPRPRPEYDPRP  0.00968
68. RRIRDRPPRLPRPRPRPCRCPRP  0.0101
69. RRIRDRPPRLPRPRPRPCTWPRP  0.0101
70. RRIRDRPPRLPRPRPRPFPIPRP  0.0144
71. RRIRDRPPRLPRPRPRPCLTPRP  0.0157
72. RRIRDRPPRLPRPRPRPDTGPRP  0.018
73. RRIRDRPPRLPRPRPRPFQAPRP  0.0185
74. RRIRDRPPRLPRPRPRPDSWPRP  0.0194
75. RRIRDRPPRLPRPRPRPALVPRP  0.0217
76. RRIRDRPPRLPRPRPRPELIPRP  0.0219
77. RRIRDRPPRLPRPRPRPFQYPRP  0.0242
78. RRIRDRPPRLPRPRPRPATDPRP  0.0254
79. RRIRDRPPRLPRPRPRPCGIPRP  0.0258
80. RRIRDRPPRLPRPRPRPDEHPRP  0.0279
81. RRIRDRPPRLPRPRPRPENKPRP  0.0324
82. RRIRDRPPRLPRPRPRPCFTPRP  0.0373
83. RRIRDRPPRLPRPRPRPASHPRP  0.0378
84. RRIRDRPPRLPRPRPRPFRIPRP  0.0432
85. RRIRDRPPRLPRPRPRPFVLPRP  0.045
86. RRIRDRPPRLPRPRPRPCWGPRP  0.0493
87. RRIRDRPPRLPRPRPRPEMCPRP  0.0536
88. RRIRDRPPRLPRPRPRPAFKPRP  0.0611
89. RRIRDRPPRLPRPRPRPCTRPRP  0.0736
90. RRIRDRPPRLPRPRPRPEFLPRP  0.0745
91. RRIRDRPPRLPRPRPRPCLFPRP  0.076
92. RRIRDRPPRLPRPRPRPDATPRP  0.0857
93. RRIRDRPPRLPRPRPRPFLIPRP  0.0926
94. RRIRDRPPRLPRPRPRPDPTPRP  0.0932
95. RRIRDRPPRLPRPRPRPEQGPRP  0.0995
96. RRIRDRPPRLPRPRPRPCWRPRP  0.101
97. RRIRDRPPRLPRPRPRPDDRPRP  0.108
98. RRIRDRPPRLPRPRPRPFKNPRP  0.11
99. RRIRDRPPRLPRPRPRPEPYPRP  0.118
100. RRIRDRPPRLPRPRPRPCMNPRP  0.119
101. RRIRDRPPRLPRPRPRPCWTPRP  0.122
102. RRIRDRPPRLPRPRPRPASFPRP  0.136
103. RRIRDRPPRLPRPRPRPFWCPRP  0.136
104. RRIRDRPPRLPRPRPRPEESPRP  0.14
105. RRIRDRPPRLPRPRPRPCGRPRP  0.147
106. RRIRDRPPRLPRPRPRPEWTPRP  0.147
107. RRIRDRPPRLPRPRPRPCIFPRP  0.168
108. RRIRDRPPRLPRPRPRPAMSPRP  0.184
109. RRIRDRPPRLPRPRPRPDPKPRP  0.189
110. RRIRDRPPRLPRPRPRPAGSPRP  0.19
111. RRIRDRPPRLPRPRPRPAPFPRP  0.196
112. RRIRDRPPRLPRPRPRPAWHPRP  0.2
113. RRIRDRPPRLPRPRPRPAGTPRP  0.207
114. RRIRDRPPRLPRPRPRPFCSPRP  0.217
115. RRIRDRPPRLPRPRPRPERSPRP  0.239
116. RRIRDRPPRLPRPRPRPACMPRP  0.242
117. RRIRDRPPRLPRPRPRPCCNPRP  0.255
118. RRIRDRPPRLPRPRPRPDDQPRP  0.259
119. RRIRDRPPRLPRPRPRPAITPRP  0.284
120. RRIRDRPPRLPRPRPRPDMNPRP  0.287
121. RRIRDRPPRLPRPRPRPAFRPRP  0.293
122. RRIRDRPPRLPRPRPRPFAPPRP  0.318
123. RRIRDRPPRLPRPRPRPCYAPRP  0.326
124. RRIRDRPPRLPRPRPRPCGWPRP  0.335
125. RRIRDRPPRLPRPRPRPDLPPRP  0.337
126. RRIRDRPPRLPRPRPRPESAPRP  0.345
127. RRIRDRPPRLPRPRPRPAVKPRP  0.368
128. RRIRDRPPRLPRPRPRPAWWPRP  0.388
129. RRIRDRPPRLPRPRPRPAMGPRP  0.399
130. RRIRDRPPRLPRPRPRPALKPRP  0.407
131. RRIRDRPPRLPRPRPRPAGMPRP  0.411
132. RRIRDRPPRLPRPRPRPEAPPRP  0.412
133. RRIRDRPPRLPRPRPRPAMRPRP  0.415
134. RRIRDRPPRLPRPRPRPEFMPRP  0.419
135. RRIRDRPPRLPRPRPRPALTPRP  0.468
136. RRIRDRPPRLPRPRPRPACDPRP  0.472
137. RRIRDRPPRLPRPRPRPEGRPRP  0.517
138. RRIRDRPPRLPRPRPRPEQNPRP  0.517
139. RRIRDRPPRLPRPRPRPDACPRP  0.52
140. RRIRDRPPRLPRPRPRPCVMPRP  0.543
141. RRIRDRPPRLPRPRPRPEPGPRP  0.707
142. RRIRDRPPRLPRPRPRPEWAPRP  0.746
143. RRIRDRPPRLPRPRPRPESGPRP  0.778
144. RRIRDRPPRLPRPRPRPEPSPRP  0.885
145. RRIRDRPPRLPRPRPRPEQSPRP  0.964
146. RRIRDRPPRLPRPRPRPGAAPRP  1.09
147. RRIRDRPPRLPRPRPRPEMLPRP  1.4
148. RRIRDRPPRLPRPRPRPEGWPRP  1.78
149. RRIRDRPPRLPRPRPRPFLYPRP  1.81
150. RRIRDRPPRLPRPRPRPEAKPRP  2.4
